In patent US20260167718A1 (Merck Sharp & Dohme, published 2026):
Positions count from the first letter of the chain named. Numbers in names are those of the source.

B1: Mouse anti-ILT3 mAb 1G12 IgG2a/Kappa (antibody, V domains shown)
VH: QVQMQQSGTELMKPGASMKISCKATGYTFSTYWIQWIKQRPGHGLEWIGEILPGSGTTNYNENFKGKATFSADTSSNTAYIHLSSLTSEDSAVFYCARRLGRGPFDYWGQGTTLTVSS
VL: DIQMTQSPSSLSASLGGKVTITCEASQDINKHIDWYQHQPGRGPSLLIHYASILQPGIPSRFSGSGSGRDYSFSITSLEPEDIATYYCLQYDNLLPTFGGGTKLEIK
notes: Mouse IgG2a/Kappa; also called p1G12; LB182.1G12.1B1
B2: Rat anti-ILT3 mAb 24A4 IgG2a/Kappa (antibody, V domains shown)
VH: QVQLKESGPGLVQASETLSLTCTVSGFSLTSYCVNWVRQPSGKGPEWLGRFWYDEGKVYNLTLESRLSISGDTSKNQVFLKMNRLRTDDTGTYYCTRDRDTLGITGWFAYWGQGTLVTVSS
VL: ETVMTQSPTSLSASIGERVTLNCKASQSVGINVDWYQQTPGQSPKLLIYGSANRHTGVPDRFTGSGFGSGFTLTISNVEPEDLGVYYCLQYGSVPYTFGPGTKLELK
notes: Rat IgG2a/Kappa; also called p24A4; LB184.24A4.1A1
B3: Rat anti-ILT3 mAb 20E4 IgG2a/Kappa (antibody, V domains shown)
VH: QVQLKESGPGLVQASETLSLTCTVSGFSLTSYSVNWVRQPSGKGLEWMGRFWYDGGTAYNSTLESRLSISGDTSKNQVFLKMNSLQTDDTGTYYCTRDRDTMGITGWFAYWGQGTLVTVSP
VL: B2 VL with I31V, G70D, P100A
notes: Rat IgG2a/Kappa; also called p20E4; LB184.20E4.1E1.1D1
B4: Rat anti-ILT3 mAb 16B1 IgG2a/Kappa (antibody, V domains shown)
VH: B2 VH with S31N, Y53F, V58A, K81R, R84S, T87A, L102V
VL: B2 VL with G70D
notes: Rat IgG2a/Kappa; also called p16B1; LB184.16B1.1D2
B5: Rat anti-ILT3 mAb 37C8 IgG2a/Kappa (antibody, V domains shown)
VH: B2 VH with L102M
VL: B2 VL
notes: Rat IgG2a/Kappa; also called p37C8; LB184.37C8.1A3.1B1
B6: Rat anti-ILT3 mAb 17H12 IgG1/Kappa (antibody, V domains shown)
VH: EVQLVESGGGLVQPGRSMKLSCAASGFTFSNFDMAWVRQAPTRGLEWVSSITYDGGSTSYRDSVKGRFTISRDNAKGTLYLQMDSLRSEDTATYYCTTVESIATISTYFDYWGQGVMVTVSS
VL: DIVLTQSPALAVSLGQRATISCRASQSVSMSRYDLIHWYQQKPGQQPKLLIFRASDLASGIPARFSGSGSGTDFTLTINPVQADDIATYYCQQTRKSPPTFGGGTRLELK
notes: Rat IgG1/Kappa; also called p17H12; LB190.17H121A1
B7: Mouse anti-ILT3 mAb 11D1 IgG2b/Kappa (antibody, V domains shown)
VH: QVQLQQSGAELMKPGASVKISCKATGYTFRTYWIEWVKQRPGHGLEWIGEILPGNGNTHFNENFKDKATFTADTSSNAAYMQLSSLTSEDSAVYYCVRRLGRGPFDFWGQGTTLTVSS
VL: DIQMTQSPSSLSVSLGGKVTITCKASQDINEYIGWYQRKPGKGPRLLIHYTSTLQSGIPSRFSGSGSGRDYSLSISNLEPEDIATYYCLQYANPLPTFGGGTKLEIK
notes: Mouse IgG2b/Kappa; also called p11D1; LB182.11D1.1A1
B8: Humanized anti-ILT3 mAb (52B8 VH1 M64V/VL2) IgG4 S228P/Kappa (antibody)
heavy: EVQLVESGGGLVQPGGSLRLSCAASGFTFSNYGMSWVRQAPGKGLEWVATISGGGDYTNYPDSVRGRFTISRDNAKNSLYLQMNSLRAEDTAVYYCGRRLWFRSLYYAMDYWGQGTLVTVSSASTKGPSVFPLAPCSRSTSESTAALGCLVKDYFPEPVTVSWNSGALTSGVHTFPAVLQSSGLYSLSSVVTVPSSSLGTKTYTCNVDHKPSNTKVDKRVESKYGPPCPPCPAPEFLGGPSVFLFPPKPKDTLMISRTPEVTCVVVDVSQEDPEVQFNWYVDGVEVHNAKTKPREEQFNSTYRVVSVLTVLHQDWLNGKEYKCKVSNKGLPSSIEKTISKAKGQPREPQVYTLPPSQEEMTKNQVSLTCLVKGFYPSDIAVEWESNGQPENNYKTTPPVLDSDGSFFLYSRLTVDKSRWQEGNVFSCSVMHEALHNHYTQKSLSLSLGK
light: DIVLTQSPDSLAVSLGERATINCRASEKVDSFGNSFMHWYQQKPGQPPKLLIYLTSNLDSGVPDRFSGSGSGTDFTLTISSLQAEDVAVYYCQQNNEDPYTFGQGTKLEIKRTVAAPSVFIFPPSDEQLKSGTASVVCLLNNFYPREAKVQWKVDNALQSGNSQESVTEQDSKDSTYSLSSTLTLSKADYEKHKVYACEVTHQGLSSPVTKSFNRGEC
notes: also called mAb 10
B9: Humanized anti-ILT3 mAb ((52B8 VH1 M64V/VL7) L234A L235A D265S) IgG1/Kappa (antibody)
heavy: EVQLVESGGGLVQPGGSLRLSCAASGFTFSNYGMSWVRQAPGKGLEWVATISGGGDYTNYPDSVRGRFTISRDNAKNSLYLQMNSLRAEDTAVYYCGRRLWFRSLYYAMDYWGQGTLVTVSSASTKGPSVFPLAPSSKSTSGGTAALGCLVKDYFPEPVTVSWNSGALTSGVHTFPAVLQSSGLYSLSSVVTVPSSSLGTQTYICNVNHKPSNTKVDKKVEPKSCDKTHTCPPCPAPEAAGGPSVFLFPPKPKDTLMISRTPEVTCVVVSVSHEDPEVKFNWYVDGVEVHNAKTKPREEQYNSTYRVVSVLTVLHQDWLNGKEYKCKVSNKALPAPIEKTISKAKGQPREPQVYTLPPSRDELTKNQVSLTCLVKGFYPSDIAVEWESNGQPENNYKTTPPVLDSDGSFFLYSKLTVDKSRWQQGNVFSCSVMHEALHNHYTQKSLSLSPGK
light: DIQLTQSPSSLSASVGDRVTITCRASEKVDSFGNSFMHWYQQKPGKAPKLLIYLTSNLDSGVPSRFSGSGSRTDFTLTISSLQPEDFATYYCQQNNEDPYTFGQGTKLEIKRTVAAPSVFIFPPSDEQLKSGTASVVCLLNNFYPREAKVQWKVDNALQSGNSQESVTEQDSKDSTYSLSSTLTLSKADYEKHKVYACEVTHQGLSSPVTKSFNRGEC
notes: also called mAb 28
B10: Humanized anti-ILT3 mAb (52B8 VH1 M64V/VL5) IgG4 S228P/Kappa (antibody)
heavy: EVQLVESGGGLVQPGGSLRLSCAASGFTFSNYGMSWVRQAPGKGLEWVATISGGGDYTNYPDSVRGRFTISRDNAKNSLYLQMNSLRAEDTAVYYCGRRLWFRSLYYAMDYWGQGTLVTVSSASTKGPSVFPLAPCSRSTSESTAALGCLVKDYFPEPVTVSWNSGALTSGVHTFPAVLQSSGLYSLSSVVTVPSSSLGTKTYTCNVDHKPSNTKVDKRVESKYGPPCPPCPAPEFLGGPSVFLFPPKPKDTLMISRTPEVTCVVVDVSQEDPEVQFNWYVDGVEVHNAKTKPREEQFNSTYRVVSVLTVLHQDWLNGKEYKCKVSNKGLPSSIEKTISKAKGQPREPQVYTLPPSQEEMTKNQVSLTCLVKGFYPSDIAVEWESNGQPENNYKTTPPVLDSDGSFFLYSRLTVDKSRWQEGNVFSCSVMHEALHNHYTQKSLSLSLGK
light: B9 light with R72G
notes: also called mAb 30; humanized 52B8 VH1 M64V/VL5
B11: Humanized anti-ILT3 mAb ((52B8 VH1 M64V/VL6) L234A L235A D265S) IgG1/Kappa (antibody)
heavy: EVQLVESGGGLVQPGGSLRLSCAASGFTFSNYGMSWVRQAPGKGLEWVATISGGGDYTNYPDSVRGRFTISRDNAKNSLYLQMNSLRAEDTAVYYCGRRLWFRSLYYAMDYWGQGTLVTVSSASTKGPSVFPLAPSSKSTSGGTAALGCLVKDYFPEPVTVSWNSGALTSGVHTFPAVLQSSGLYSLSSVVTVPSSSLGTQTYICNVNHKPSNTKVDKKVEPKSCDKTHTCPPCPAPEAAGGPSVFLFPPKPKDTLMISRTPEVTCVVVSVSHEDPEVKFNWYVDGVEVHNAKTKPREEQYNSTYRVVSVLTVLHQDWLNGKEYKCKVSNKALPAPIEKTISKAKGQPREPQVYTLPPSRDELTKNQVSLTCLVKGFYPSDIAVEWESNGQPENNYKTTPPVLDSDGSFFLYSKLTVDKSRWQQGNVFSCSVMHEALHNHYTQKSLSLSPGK
light: B9 light with L4M
notes: also called mAb 27
B12: Humanized anti-ILT3 mAb (52B8 VH1 M64V/VL7) IgG4 S228P/Kappa (antibody)
heavy: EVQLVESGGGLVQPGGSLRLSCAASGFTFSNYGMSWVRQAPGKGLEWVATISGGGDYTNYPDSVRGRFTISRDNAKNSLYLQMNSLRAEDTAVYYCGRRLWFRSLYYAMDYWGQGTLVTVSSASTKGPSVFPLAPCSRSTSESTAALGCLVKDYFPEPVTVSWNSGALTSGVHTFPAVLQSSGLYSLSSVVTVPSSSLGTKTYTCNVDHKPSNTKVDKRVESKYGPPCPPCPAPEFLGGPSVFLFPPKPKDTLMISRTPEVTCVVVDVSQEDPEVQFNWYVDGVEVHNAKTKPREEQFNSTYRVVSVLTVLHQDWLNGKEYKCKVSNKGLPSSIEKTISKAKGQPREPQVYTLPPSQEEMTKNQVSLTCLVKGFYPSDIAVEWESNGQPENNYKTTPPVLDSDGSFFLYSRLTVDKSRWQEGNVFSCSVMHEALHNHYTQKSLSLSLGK
light: B9 light
notes: also called mAb 32
B13: Humanized anti-ILT3 mAb (52B8 VH1 M64V/VL6) IgG4 S228P/Kappa (antibody)
heavy: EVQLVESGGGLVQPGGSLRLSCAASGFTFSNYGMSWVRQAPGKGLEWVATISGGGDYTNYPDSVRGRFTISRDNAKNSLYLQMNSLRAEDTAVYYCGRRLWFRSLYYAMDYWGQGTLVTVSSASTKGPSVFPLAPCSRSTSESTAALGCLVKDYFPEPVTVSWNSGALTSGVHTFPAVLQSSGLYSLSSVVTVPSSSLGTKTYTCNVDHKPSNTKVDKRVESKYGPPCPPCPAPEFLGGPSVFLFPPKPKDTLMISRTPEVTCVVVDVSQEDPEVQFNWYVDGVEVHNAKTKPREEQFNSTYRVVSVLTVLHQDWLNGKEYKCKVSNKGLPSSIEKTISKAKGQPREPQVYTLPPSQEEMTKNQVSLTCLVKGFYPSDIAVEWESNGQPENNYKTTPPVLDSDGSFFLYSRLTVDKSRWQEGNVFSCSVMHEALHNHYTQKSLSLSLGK
light: B9 light with L4M
notes: also called mAb 31
B14: Humanized anti-ILT3 mAb (52B8 VH1 M64V/VL8) IgG4 S228P/Kappa (antibody)
heavy: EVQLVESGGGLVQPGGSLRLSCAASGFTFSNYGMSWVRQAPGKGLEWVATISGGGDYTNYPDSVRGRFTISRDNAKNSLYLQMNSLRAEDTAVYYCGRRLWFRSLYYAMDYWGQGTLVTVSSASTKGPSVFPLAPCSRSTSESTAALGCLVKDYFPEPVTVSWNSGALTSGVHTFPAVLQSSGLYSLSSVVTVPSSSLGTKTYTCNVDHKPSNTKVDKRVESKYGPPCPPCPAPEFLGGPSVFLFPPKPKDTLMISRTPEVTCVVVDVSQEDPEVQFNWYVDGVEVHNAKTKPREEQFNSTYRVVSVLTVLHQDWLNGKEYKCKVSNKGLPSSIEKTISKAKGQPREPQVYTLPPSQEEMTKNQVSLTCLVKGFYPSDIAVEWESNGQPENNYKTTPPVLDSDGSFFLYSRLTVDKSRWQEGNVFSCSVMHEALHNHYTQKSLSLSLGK
light: B9 light with S64A
notes: also called mAb 33
B15: Humanized anti-ILT3 mAb ((52B8 VH1 M64V/VL8) L234A L235A D265S) IgG1/Kappa (antibody)
heavy: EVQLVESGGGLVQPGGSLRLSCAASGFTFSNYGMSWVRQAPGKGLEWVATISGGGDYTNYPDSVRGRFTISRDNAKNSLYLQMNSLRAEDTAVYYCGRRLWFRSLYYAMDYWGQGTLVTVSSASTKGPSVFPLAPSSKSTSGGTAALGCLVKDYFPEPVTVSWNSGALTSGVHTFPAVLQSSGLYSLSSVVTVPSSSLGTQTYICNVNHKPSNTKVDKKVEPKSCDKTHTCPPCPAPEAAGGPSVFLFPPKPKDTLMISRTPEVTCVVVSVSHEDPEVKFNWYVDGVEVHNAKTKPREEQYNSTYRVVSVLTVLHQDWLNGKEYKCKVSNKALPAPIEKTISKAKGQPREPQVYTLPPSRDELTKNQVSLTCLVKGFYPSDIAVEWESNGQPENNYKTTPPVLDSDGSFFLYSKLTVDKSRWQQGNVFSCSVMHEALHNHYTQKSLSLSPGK
light: B9 light with S64A
notes: also called mAb 29
B16: Humanized anti-ILT3 mAb ((52B8 VH1 M64V/VL5) L234A L235A D265S) IgG1/Kappa (antibody)
heavy: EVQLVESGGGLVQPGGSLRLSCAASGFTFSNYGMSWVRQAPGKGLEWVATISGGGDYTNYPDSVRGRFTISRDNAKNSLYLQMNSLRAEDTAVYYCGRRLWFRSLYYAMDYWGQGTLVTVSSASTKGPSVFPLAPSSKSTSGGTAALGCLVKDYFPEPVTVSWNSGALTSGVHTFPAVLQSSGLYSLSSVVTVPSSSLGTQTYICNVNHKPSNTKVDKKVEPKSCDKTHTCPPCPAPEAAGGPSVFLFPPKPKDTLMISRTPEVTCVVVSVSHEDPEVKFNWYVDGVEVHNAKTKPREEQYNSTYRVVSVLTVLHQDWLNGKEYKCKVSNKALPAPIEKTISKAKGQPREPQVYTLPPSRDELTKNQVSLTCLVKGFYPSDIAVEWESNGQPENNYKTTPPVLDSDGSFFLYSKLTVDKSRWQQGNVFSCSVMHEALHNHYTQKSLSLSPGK
light: B9 light with R72G
notes: also called mAb 26
B17: Humanized anti-ILT3 mAb ((52B8 VH1 M64V/VL2) L234A L235A D265S) IgG1/Kappa (antibody)
heavy: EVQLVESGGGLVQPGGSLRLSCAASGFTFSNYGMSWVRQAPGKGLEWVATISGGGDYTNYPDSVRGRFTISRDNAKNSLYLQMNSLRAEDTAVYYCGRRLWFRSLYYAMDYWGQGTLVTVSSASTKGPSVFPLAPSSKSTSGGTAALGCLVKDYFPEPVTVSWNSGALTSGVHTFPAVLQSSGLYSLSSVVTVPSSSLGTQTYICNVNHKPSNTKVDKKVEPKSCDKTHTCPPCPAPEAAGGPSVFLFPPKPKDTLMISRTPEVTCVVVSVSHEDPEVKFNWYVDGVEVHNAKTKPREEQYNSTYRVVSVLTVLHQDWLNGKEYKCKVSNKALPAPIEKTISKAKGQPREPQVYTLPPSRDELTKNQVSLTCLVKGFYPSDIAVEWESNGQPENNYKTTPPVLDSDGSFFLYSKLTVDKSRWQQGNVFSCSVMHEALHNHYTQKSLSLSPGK
light: B8 light
notes: also called mAb 25

The binders below were run against T1, Human ILT3 (LILRB4) extracellular domain with C-terminal His Tag (human, UniProt Q8NHJ6 22-259) (assay: SPR (Biacore), human ILT3-His).
T1 construct: the claims count residues 1-238 as the extracellular domain; also called human ILT3-His; ILT3_H

Row | Binder | Kd
1 | B1 | 16.9 nM
2 | B2 | 0.0205 nM
3 | B3 | 6.99 nM
4 | B4 | 0.0957 nM
5 | B5 | 0.0118 nM
6 | B6 | 0.592 nM
7 | B7 | 14.1 nM

These binders were tested against T2, Rhesus monkey ILT3 expressed on CHO-K1 cells (rhesus monkey (Macaca mulatta)) (assay: cELISA, CHO rhesus ILT3 cells).
T2 construct: whole, on cells; also called rhILT3; CHO-rhesus ILT3

Row | Binder | EC50
8 | B2 | 21.3 µg/mL
9 | B3 | 18 µg/mL
10 | B5 | 9.48 µg/mL
11 | B8 | 0.148 µg/mL

Molecular target: T3, rhesus ILT3-His tagged recombinant protein (rhesus monkey (Macaca mulatta))
T3 construct: also called ILT3_MM; not shown: His tag
T3 chain: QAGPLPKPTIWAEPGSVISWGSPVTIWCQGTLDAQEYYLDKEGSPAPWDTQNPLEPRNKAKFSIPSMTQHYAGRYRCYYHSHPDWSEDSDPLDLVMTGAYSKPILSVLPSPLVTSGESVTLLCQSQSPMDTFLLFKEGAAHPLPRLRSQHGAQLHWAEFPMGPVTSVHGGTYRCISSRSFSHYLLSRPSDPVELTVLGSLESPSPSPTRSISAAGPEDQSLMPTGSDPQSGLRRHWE
Test: Biacore SPR, column rhILT3 KD (nM)

Row | Binder | Kd
12 | B9 | 5.56 nM
13 | B10 | 4.8 nM
14 | B11 | 10.3 nM
15 | B12 | 5.61 nM
16 | B13 | 10.3 nM
17 | B14 | 5.59 nM
18 | B15 | 5.74 nM
19 | B16 | 4.9 nM
20 | B8 | 8.77 nM
21 | B17 | 8.66 nM

Each binder was assayed against T1, Human ILT3 (LILRB4) extracellular … (assay: Biacore SPR, column huILT3 KD (nM)).

Row | Binder | Kd
22 | B9 | 0.57 nM
23 | B10 | 0.6 nM
24 | B11 | 0.92 nM
25 | B12 | 0.53 nM
26 | B13 | 0.88 nM
27 | B14 | 0.54 nM
28 | B15 | 0.56 nM
29 | B16 | 0.61 nM
30 | B8 | 0.72 nM
31 | B17 | 0.74 nM

Molecular target: T3, rhesus ILT3-His tagged recombinant …
Test: SPR (Biacore), rhesus ILT3-His

Row | Binder | binding result | Kd
32 | B1 | no binding | –
33 | B2 | – | 0.126 nM
34 | B3 | – | 18 nM
35 | B4 | – | 0.259 nM
36 | B5 | – | 0.15 nM
37 | B6 | no binding | –

Molecular target: T3, rhesus ILT3-His tagged recombinant …
Test: SPR (Biacore), rhesus ILT3-His
Remark: another data set of the same source
Experimental: (§1) The binding kinetics and affinities of anti-human ILT3 clones for human or rhesus ILT3-His tagged recombinant protein were measured by surface plasmon resonance using a Biacore™ T200 system (GE Healthcare, Piscataway, NJ). HBS-EP+ buffer (BR-1006-69) was used as the running buffer. Anti-human Fc antibody (Human Fc Capture Kit, BR100839, GE Healthcare) was immobilized via amine coupling chemistry in all four flow cells on a Series S CM5 sensor chip (BR100530 or 29149603, GE Healthcare) following manufacturer instructions. Flow cell 1 was used as reference for background subtraction and was not used for capture. […] Following each injection cycle, all four flow cells were regenerated using 30 second injection of 3M MgCl₂ solution at a flow rate of 10 μL/minute. Reference subtracted sensorgrams were fit to a 1:1 Langmuir Binding Model in the Biacore™ T200 Evaluation Software (Version 2.0) to determine the association (ka) and dissociation (kd) rate constants and the equilibrium dissociation constant KD (=kd/ka).

Row | Binder | Kd
38 | B9 | 5.6 nM
39 | B10 | 4.8 nM
40 | B11 | 10 nM
41 | B12 | 5.6 nM
42 | B13 | 10 nM
43 | B14 | 5.6 nM
44 | B15 | 5.7 nM
45 | B16 | 4.9 nM
46 | B2 | 0.126 nM
47 | B3 | 18.2 nM
48 | B4 | 0.259 nM
49 | B5 | 0.145 nM
50 | B8 | 22 nM
51 | B17 | 8.7 nM

These binders were tested against T4, human ILT3 expressed on cells (human, UniProt Q8NHJ6 22-448) (assay: cELISA, CHO human ILT3 cells).
T4 construct: whole, on cells; also called huILT3; LILRB4
Experimental: (§2) Mouse anti-human ILT3 antibodies were tested for binding to human ILT3, and cross-reactivity to Rhesus monkey ILT3, human ILT5, human ILT7, human ILT8, and human ILT11 expressing CHO-K1 cells using a cell-based ELISA format. CHO-K1 cells were plated in 96-well tissue-culture plates in 50 μL of DMEM/F12, 10% BCS and gentamycin (CHO-K1 media). Cells were plated at either 2×10⁴ cells/well two days prior to the assay or 4×10⁴ cells/well one day prior to the assay. Media was removed from the wells prior to adding the test samples. Purified antibody was serially-diluted in CHO-K1 media and added to the CHO-K1 plates. The samples were incubated at room temperature for 30-60 minutes and plates were washed three times with PBS/05% Tween-20 using the cell wash program on the Biotek EL405x Select CW plate washer. Binding was detected using an HRP-conjugated goat anti-mouse IgG (Southern Biotech cat #1031-05) secondary antibody added at a 1:2000 dilution in CHO-K1 media and incubated at room temperature for 30-60 minutes. Assay plates were washed as above and developed with TMB and stopped with TMB stop solution (KPL cat #50-85-06). The absorbance at 450 nm—620 nm was determined. Mouse IgG1 (MIgG1) served as a control.

Row | Binder | EC50
52 | B1 | 0.0392 µg/mL
53 | B2 | 0.0214 µg/mL
54 | B3 | 0.002 µg/mL
55 | B4 | 0.0649 µg/mL
56 | B5 | 0.0077 µg/mL
57 | B6 | 0.139 µg/mL
58 | B7 | 0.0505 µg/mL

Molecular target: T2, Rhesus monkey ILT3 expressed on CHO-K1 …
Test: cELISA, CHO rhesus ILT3 cells
Remark: another data set of the same source
Experimental: as §2

Row | Binder | EC50
59 | B2 | 0.0231 µg/mL
60 | B3 | 0.018 µg/mL
61 | B4 | 0.0679 µg/mL
62 | B5 | 0.0095 µg/mL

Molecular target: T4, human ILT3 expressed on cells
Test: cELISA, CHO human ILT3 cells
Remark: another data set of the same source

Row | Binder | EC50
63 | B1 | 39.2 µg/mL
64 | B2 | 21.4 µg/mL
65 | B3 | 1.99 µg/mL
66 | B5 | 7.72 µg/mL
67 | B6 | 139 µg/mL
68 | B8 | 0.085 µg/mL
69 | B7 | 50.5 µg/mL

Molecular target: T1, Human ILT3 (LILRB4) extracellular …
Test: SPR (Biacore), human ILT3-His
Remark: another data set of the same source
Experimental: as §1

Row | Binder | Kd
70 | B9 | 0.57 nM
71 | B10 | 0.6 nM
72 | B11 | 0.92 nM
73 | B12 | 0.53 nM
74 | B13 | 0.88 nM
75 | B14 | 0.54 nM
76 | B15 | 0.56 nM
77 | B16 | 0.61 nM
78 | B2 | 0.021 nM
79 | B3 | 6.99 nM
80 | B4 | 0.096 nM
81 | B5 | 0.012 nM
82 | B8 | 1.1 nM
83 | B17 | 0.74 nM
